Measured values reported in patent US20230391885A1 (INTEGRAL MOLECULAR, published 2023).
Substitutions are numbered along the chain they refer to. Read-outs that look alike come from different tables or passages of the source.

What was measured:
Claudin 18.2 (human) [1] = target: T1, Claudin 18.2 (human) (human); assay: flow cytometry, antibody titration on HEK-293T cells transfected with human CLDN18.2
T1 construct: Multispanning membrane protein; also called hsCLDN18.2
From the text: (§1) Fluorescence was detected using an Intellicyt high-throughput flow cytometer (HTFC; Intellicyt, Albuquerque, NM).”).

Claudin 18.2 (mouse) [2] = target: T2, Claudin 18.2 (mouse) (mouse, UniProt P56857 10-264); assay: flow cytometry, antibody titration on HEK-293T cells transfected with mouse CLDN18.2
T2 construct: Expressed on transfected HEK-293T cells; also called mouse CLDN18.2
T2 chain: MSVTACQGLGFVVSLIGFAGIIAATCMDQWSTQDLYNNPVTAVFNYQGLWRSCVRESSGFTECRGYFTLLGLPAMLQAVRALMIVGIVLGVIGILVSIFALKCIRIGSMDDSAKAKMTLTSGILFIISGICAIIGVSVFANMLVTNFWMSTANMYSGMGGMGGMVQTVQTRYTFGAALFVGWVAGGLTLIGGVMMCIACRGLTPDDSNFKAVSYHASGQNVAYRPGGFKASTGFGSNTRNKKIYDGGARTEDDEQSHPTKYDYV
From the text: as §1

[3] = target: T3, Claudin 18.2 (cynomolgus) (cynomolgus); assay: flow cytometry, antibody titration on HEK-293T cells transfected with cynomolgus CLDN18.2
T3 construct: Expressed on transfected HEK-293T cells; also called cynomolgus CLDN18.2
T3 chain: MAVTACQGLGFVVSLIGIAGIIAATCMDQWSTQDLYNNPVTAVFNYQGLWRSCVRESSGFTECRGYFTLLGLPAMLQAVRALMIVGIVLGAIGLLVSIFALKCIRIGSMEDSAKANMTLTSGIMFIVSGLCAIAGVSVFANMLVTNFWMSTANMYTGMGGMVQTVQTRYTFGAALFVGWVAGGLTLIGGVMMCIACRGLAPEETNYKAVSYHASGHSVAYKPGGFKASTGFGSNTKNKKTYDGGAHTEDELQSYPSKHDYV
From the text: as §1

Claudin 18.2 (human) [4] = target: T1, Claudin 18.2 (human); assay: cell binding (MFI), titration on cells with native Claudin 18.2; cell type and species not stated for this figure
Claudin 18.2 (human) [5] = target: T1, Claudin 18.2 (human); assay: flow cytometry, antibody titration on HEK-293T cells transfected with hsCLDN18.2, APC-labelled anti-human secondary
From the text: Fluorescence was detected using an Intellicyt high-throughput flow cytometer (HTFC; Intellicyt, Albuquerque, NM).

Claudin 18.2 (human) [6] = target: T1, Claudin 18.2 (human); assay: biolayer interferometry (Octet Red), biotinylated hsCLDN18.2-VLPs on streptavidin tips, antibody in solution, 1:1 model; hsCLDN18.2 on biotinylated VLPs on the biosensor tip
Method: All biosensor studies were performed in PBS buffer supplemented with 1 mg/mL bovine serum albumin (BSA; PBS-B) at 25° C. using a ForteBio Octet Red biosensor system (Pall-ForteBio, Inc., Menlo Park, CA). […] Antibody binding and dissociation kinetics were determined for serial dilutions of antibody in PBS-B starting at 20 μg/mL. Antibody association was measured for 5 minutes followed by dissociation for up to 45 minutes in buffer. Non-specific binding was assessed using sensor tips with VLPs containing only endogenous proteins (Null VLPs). Data analysis was performed using the Octet data analysis program (v8.1; ForteBio) using a standard 1:1 binding model.

Claudin 18.2 (human) [7] = target: T1, Claudin 18.2 (human); assay: flow cytometry, antibody titration on HEK-293T cells transfected with human CLDN18.2; remark: listed apart in the source
From the text: as §1

Claudin 18.2 (mouse) [8] = target: T2, Claudin 18.2 (mouse); assay: flow cytometry, antibody titration on HEK-293T cells transfected with mouse CLDN18.2
From the text: as §1

[9] = target: T3, Claudin 18.2 (cynomolgus); assay: flow cytometry, antibody titration on HEK-293T cells transfected with cynomolgus CLDN18.2
From the text: as §1

Claudin 18.2 (human) [10] = target: T1, Claudin 18.2 (human); assay: cell binding (MFI), titration on cells with native Claudin 18.2; cell type and species not stated for this figure; remark: listed apart in the source
Claudin 18.2 (mouse) [11] = target: T2, Claudin 18.2 (mouse); assay: flow cytometry, antibody titration on HEK-293T cells transfected with mouse CLDN18.2
From the text: as §1

[12] = target: T3, Claudin 18.2 (cynomolgus); assay: flow cytometry, antibody titration on HEK-293T cells transfected with cynomolgus CLDN18.2
From the text: as §1

Claudin 18.2 (human) [13] = target: T1, Claudin 18.2 (human); assay: cell binding (MFI), titration on cells with native Claudin 18.2; cell type and species not stated for this figure; remark: listed apart in the source
Claudin 18.2 (human) [14] = target: T1, Claudin 18.2 (human); assay: biolayer interferometry (Octet Red), biotinylated hsCLDN18.2-VLPs on streptavidin tips, antibody in solution, 1:1 model

B1: MAb2 (IM-44-01E10-1HA) (antibody, V domains shown)
VH: EVQLLESGGGLVQPGGSLRLSCAASGFTFSSYGMSWVRQAPGKGLEWVAGIGSSGSDTWYADSVKGRFTISRDNSKNTLYLQMNSLRAEDTAVYYCAKDATNGYCWYTGRGSYSCGAHHIDAWGQGTLVTVSS
VL: SYELTQPPSVSVSPGQTARITCSGGSGSYGYYGWYQQKPGQAPVTVIYGTNKRPSGIPERFSGSSSGTTVTLTISGVQAEDEADYYCGGYDSSAGIFGGGTKLTVL
notes: Humanized antibody derived from a chicken scFv; tested as 'purified IgG' (bivalent); The general methods say candidate scFv were converted to human IgG1-Fc (scFv-Fc) format
With B1 the “EC50 (read off the curve)” value (Claudin 18.2 (human) [1]) was roughly 6 nM, the “EC50 (read off the curve)” value (Claudin 18.2 (mouse) [2]) was roughly 6 nM and the “EC50 (read off the curve)” value [3] was roughly 4 nM. The “EC50 (read off the curve)” value (Claudin 18.2 (human) [4]) was roughly 4 nM, the “EC50 (read off the curve)” value (Claudin 18.2 (human) [5]) was roughly 4 nM and the Kd (Claudin 18.2 (human) [6]) was 0.3 nM.

B2: monovalent form of MAb2 (other)
VH: B1 VH
VL: B1 VL
notes: also called MAb2 monovalent; monomeric MAb2
In the case of B2, the “EC50 (read off the curve)” value (Claudin 18.2 (human) [4]) is reported as roughly 10 nM.

B3: MAb1 (IM-44-09B03-1H1B) (antibody, V domains shown)
VH: EVQLLESGGGLVQPGGSLRLSCAASGFTFSSYGMGWVRQAPGKGLEWVAAITRDSSTNYGAAVKGRATISRDNSKNTLYLQMNSLRAEDTAVYYCAKDASNGYCWYTGRGSYSCGAHHIDAWGQGTLVTVSS
VL: SYELTQPPSVSVSPGQTARITCSGGYNGHYGWYQQKPGQAPVTVIYSNNQRPSGIPERFSGSSSGTTVTLTISGVQAEDEADYYCGGYDSSAGIFGGGTKLTVL
notes: Humanized antibody derived from a chicken scFv; tested as 'purified IgG' (bivalent); The general methods say candidate scFv were converted to human IgG1-Fc (scFv-Fc) format; also called IM-44-09B03-1HB; IM-44-09B03-1HIB
For B3, the “EC50 (read off the curve)” value (Claudin 18.2 (human) [7]) was roughly 4 nM, the “EC50 (read off the curve)” value (Claudin 18.2 (mouse) [8]) was roughly 4 nM and the “EC50 (read off the curve)” value [9] was roughly 5 nM. The “EC50 (read off the curve)” value (Claudin 18.2 (human) [10]) was roughly 0.8 nM, the “EC50 (read off the curve)” value (Claudin 18.2 (human) [5]) was roughly 5 nM and the Kd (Claudin 18.2 (human) [6]) was 0.1 nM.

B4: MAb3 (IM-44-05H06-1HD) (antibody, V domains shown)
VH: EVQLLESGGGLVQPGGSLRLSCAASGFTFRSYAMMWVRQAPGKGLEWVGEISSTGGSTYYGSAVKGRATISRDNSKNTLYLQMNSLRAEDTAVYYCAKSTYGATWKSADSIDAWGQGTLVTVSS
VL: B3 VL with T43L
notes: as for B1
B4 was tested, and the “EC50 (read off the curve)” value (Claudin 18.2 (mouse) [11]) was roughly 9 nM, the “EC50 (read off the curve)” value [12] was roughly 9 nM and the “EC50 (read off the curve)” value (Claudin 18.2 (human) [13]) was roughly 3 nM. The Kd (Claudin 18.2 (human) [6]) was 1.2 nM.

B5: monovalent form of MAb1 (other)
VH: B3 VH
VL: B3 VL
notes: also called MAb1 monovalent; monomeric MAb1
With B5 the “EC50 (read off the curve)” value (Claudin 18.2 (human) [10]) was roughly 3 nM.

B6: zolbetuximab (antibody, V domains shown)
VH: QVQLQQPGAELVRPGASVKLSCKASGYTFTSYWINWVKQRPGQGLEWIGNIYPSDSYTNYNQKFKDKATLTVDKSSSTAYMQLSSPTSEDSAVYYCTRSWRGNSFDYWGQGTTLTVSS
VL: DIVMTQSPSSLTVTAGEKVTMSCKSSQSLLNSGNQKNYLTWYQQKPGQPPKLLIYWASTRESGVPDRFTGSGSGTDFTLTISSVQAEDLAVYYCQNDYSYPFTFGSGTKLEIK
B6 was tested, and the Kd (Claudin 18.2 (human) [14]) was 0.3 nM.
